# Tests used:
# [1] = target: RNase E C-terminal domain (residues 451-898) with C-terminal eYFP (Caulobacter crescentus); assay: partitioning of a fluorescent client into condensates (fluorescence microscopy), peptide competition; PNPase incubated with peptide (GWW or scrambled, 0 to 200 µM) before adding RNase E to form droplets; 20 mM Tris pH 7.5, 1 mM MgCl2, 10 mM Na2HPO4 pH 7.5, 100 mM NaCl (120 mM NaCl in Fig. S2), 10% PEG 8000 (Figs. S2, S3)
# [2] = target: RNase E C-terminal domain (residues 451-898) with C-terminal eYFP (Caulobacter crescentus); assay: partitioning of a fluorescent client into condensates (fluorescence microscopy); RNase E CTD condensates as scaffold, PNPase-mCherry variants as clients; 20 mM Tris pH 7.5, 20 mM MgCl2, 4 mM Na2HPO4 pH 7.5, 70 mM NaCl, 0.5 mM DTT; 30 min at room temperature; partitioning ratio (Fig. 3)
# [3] = target: RNase E C-terminal domain (residues 451-898) with C-terminal eYFP (Caulobacter crescentus); assay: partitioning of a fluorescent client into condensates (fluorescence microscopy); 20 µM RNase E CTD-eYFP (or ∆PNP-BS) condensates as scaffold, mCherry-labelled client; 20 mM Tris pH 7.5, 1 mM MgCl2, 10 mM Na2HPO4 pH 7.5, 100 mM NaCl, 10% PEG 8000; 30 min at room temperature; partitioning ratio = mean droplet signal / mean non-droplet signal (Figs. 2, S1)
partitioning ratio (without peptide) [1],partitioning ratio with 100 µM GWW peptide [1],partitioning ratio [2],partitioning ratio [3],Molecule
2.8,1.7,,,PNPase-mCherry as used in the peptide competition and poly(A) recruitment microscopy (from UniProt Q9AC32 1-712) (enzyme)
,,4.4,5.7,PNPase-S439A/S440A/S441A-mCherry (PNPase active site mutant) (enzyme) MFDIKRKTIEWGGKTLVLETGRIARQADGAVLATMGETVVLATAVFAKSQKPGQDFFPLTVNYQEKTFAAGKIPGGFFKREGRPSEKETLVSRLIDRPIRPLFVKGFKNEVQVVVTVLQHDLENDPDILGMVAASAALCLSGAPFMGPIGAARVGWVDGAYVLNPTLDEMKESKMDLVVAGTADAVMMVESEIQELSEEIVLGGVNFAHQQMQAVIDAIIDLAEHAAKEPFAFEPEDTDAIKAKMKDLVGADIAAAYKIQKKQDRYEAVGAAKKKAIAALGLSDENPTGYDPLKLGAIFKELEADVVRRGILDTGLRIDGRDVKTVRPILGEVGILPRTHGSALFTRGETQAIVVATLGTGDDEQFIDALEGTYKESFLLHYNFPPYSVGETGRMGSPGRREIGHGKLAWRALRPMLPTKEDFPYTIRLVSEITESNGAAAMATVCGSSLAMMDAGVPLVRPVSGIAMGLILEQDGFAVLSDILGDEDHLGDMDFKVAGTSEGLTSLQMDIKIAGITPAIMEQALAQAKEGRAHILGEMNKAMDAPRADVGDFAPKIETINIPTDKIREVIGSGGKVIREIVATTGAKVDINDDGVVKVSASDGAKIKAAIDWIKSITDEAEVGKIYDGKVVKVVDFGAFVNFFGAKDGLVHVSQISNERVAKPSDVLKEGQMVKVKLLGFDDRGKTKLSMKVVDQETGEDLSKKEAAAEEA
,,1,,PNPase-V104A/E224A/F233A-mCherry (enzyme) MFDIKRKTIEWGGKTLVLETGRIARQADGAVLATMGETVVLATAVFAKSQKPGQDFFPLTVNYQEKTFAAGKIPGGFFKREGRPSEKETLVSRLIDRPIRPLFAKGFKNEVQVVVTVLQHDLENDPDILGMVAASAALCLSGAPFMGPIGAARVGWVDGAYVLNPTLDEMKESKMDLVVAGTADAVMMVESEIQELSEEIVLGGVNFAHQQMQAVIDAIIDLAAHAAKEPFAAEPEDTDAIKAKMKDLVGADIAAAYKIQKKQDRYEAVGAAKKKAIAALGLSDENPTGYDPLKLGAIFKELEADVVRRGILDTGLRIDGRDVKTVRPILGEVGILPRTHGSALFTRGETQAIVVATLGTGDDEQFIDALEGTYKESFLLHYNFPPYSVGETGRMGSPGRREIGHGKLAWRALRPMLPTKEDFPYTIRLVSEITESNGSSSMATVCGSSLAMMDAGVPLVRPVSGIAMGLILEQDGFAVLSDILGDEDHLGDMDFKVAGTSEGLTSLQMDIKIAGITPAIMEQALAQAKEGRAHILGEMNKAMDAPRADVGDFAPKIETINIPTDKIREVIGSGGKVIREIVATTGAKVDINDDGVVKVSASDGAKIKAAIDWIKSITDEAEVGKIYDGKVVKVVDFGAFVNFFGAKDGLVHVSQISNERVAKPSDVLKEGQMVKVKLLGFDDRGKTKLSMKVVDQETGEDLSKKEAAAEEA

# — PMC10412687
